Measured values: patent US10759836B2, “Cancer vaccine compositions and methods of use thereof” (UNIVERSITY OF WASHINGTON, priority 2014, dated 2020)
“Also recorded” adds a separate entry of the source.

B1: PRL3: peptide vaccine of PRL-3 #1, #2, #3, #4, #29, 50 ug per peptide with CFA/IFA (peptide)
chain 1: VSYKHMRFLITHNPTNATL
chain 2: FIEDLKKYGATTVVRVCEVTY
chain 3: PCVAGLGRAPVLVALALIES
chain 4: MKYEDAIQFIRQKRRGAIN
chain 5: VEDWLSLVKAKFCEA
modifications: with CFA/IFA adjuvant
notes: peptide vaccine of PRL-3 #1, #2, #3, #4, #29, 50 ug per peptide with CFA/IFA
B2: RCAS1: peptide vaccine of RCAS1 #13, #14, #21, #30, #31, 50 ug per peptide with CFA/IFA (peptide)
chain 1: EPDYFKDMTPTIRKTQKIVI
chain 2: DYFKDMTPTIRKTQKIVIKKR
chain 3: LFKFCTCLATVFSFLKRLIC
chain 4: GFSSRLAATQDLPFIHQSSELGD
chain 5: EEEDAAWQAEEVLRQQKLADR
modifications: with CFA/IFA adjuvant
notes: peptide vaccine of RCAS1 #13, #14, #21, #30, #31, 50 ug per peptide with CFA/IFA
B3: VCP: peptide vaccine of VCP #18, #19, #20, #23, 50 ug per peptide with CFA/IFA (peptide)
chain 1: IRMNRVVRNNLRVRLGDVISI
chain 2: LQLFRGDTVLLKGKKRR
chain 3: YFLEAYRPIRKGDIFLVRG
chain 4: VEFKVVETDPSPYCIVAPDT
modifications: with CFA/IFA adjuvant
notes: peptide vaccine of VCP #18, #19, #20, #23, 50 ug per peptide with CFA/IFA

What was measured:
[1] = system: small bowel tumor burden in APCmin mice; experiment: APCmin survival study: small bowel tumor count at sacrifice; format: in vivo; settings: boosters every 4-5 weeks, vs CFA/IFA
Protocol: At 4-6 weeks of age, mice were immunized with CFA/IFA, PBS, and vaccine groups. Each group received subcutaneous injections (100 ul PBS, 50 ul CFA with 50 ul PBS, 50 ug per peptide with 50 ul CFA) once every 7-10 days for a total of three doses and a booster vaccine was given every 4-5 weeks after the third vaccine. See Table 6 for peptides included in vaccine compositions. CFA was replaced with IFA after the first vaccine. […] At sacrifice, small intestines were collected and small bowel tumors counted.

[2] = system: small bowel tumor burden in APCmin mice; experiment: APCmin mouse model: small bowel tumor count after peptide vaccination; format: in vivo; settings: for effect on small bowel tumor burden (tumor count): APCmin mice, vs CFA/IFA control, 50 ug per peptide s.c.; for peptide efficacy, APCmin Small Bowel (Spontaneous): summary table, Yes/No
Protocol: (§1) Offspring from APCmin were genotyped by PCR for the presence of the Min mutation using primers as follows: Wild-Type: 5′-[…]-3′ (SEQ ID NO: 46), Common 5′-[…]-3′ (SEQ ID NO: 47), Mutant: 5′-[…]-3′ (SEQ ID NO: 48). Both male and female mice testing positive for the Min mutation were included in the study and randomized into groups.
(§2) At 4-6 weeks of age, mice were immunized in CFA/IFA, PBS, and vaccine groups. Each group received subcutaneous injections (100 ul PBS, 50 ul CFA with 50 ul PBS, 50 ug per peptide with 50 ul CFA) once every 7-10 days for a total of three doses and one booster was given 4-5 weeks after the third vaccine. See Table 5 for peptides included in vaccine compositions. CFA was replaced with IFA after the first vaccine. All mice were sacrificed at 14 to 17 weeks of age, the gastrointestinal tracts were collected and tumors counted.

[3] = system: colon tumor burden in APCmin mice; experiment: APCmin mouse model: colon tumor count after peptide vaccination; format: in vivo; settings: for effect on colon tumor burden (tumor count): APCmin mice, vs CFA/IFA control, 50 ug per peptide s.c.; for peptide efficacy, APCmin Colon (Spontaneous): summary table, Yes/No
Protocol: as §1, §2

[4] = system: MC-38 cells (murine adenocarcinoma); experiment: MC-38 tumor implant model: tumor volume after peptide vaccination; format: in vivo, C57Bl/6 mice; settings: for effect on tumor volume: MC-38 tumor implant in C57Bl/6 mice, vs CFA/IFA; for peptide efficacy, MC-38 + B6 (Tumor Implant): summary table, Yes/No
Protocol: MC-38 tumor implant in-vivo experiments. At 6 weeks of age, mice were immunized in CFA/IFA, PBS, and vaccine groups. Each group received subcutaneous injections (100 ul PBS, 50 ul CFA with 50 ul PBS, 50 ug per peptide with 50 ul CFA) once every 10-14 days for a total of three doses. See Table 9 for peptides included in vaccine compositions. CFA was replaced with IFA for the second and third vaccines. Two weeks after the final vaccine, we subcutaneously implanted 4×10^4 MC-38 cells (murine adenocarcinoma), and measured tumor growth with Vernier calipers 2-3 times per week. Tumor volume was calculated as length×width×height×π/6, which is the standard volume calculation of an ellipsoid. Mice were sacrificed when tumor size in control mice reached greater than 1000 mm^3.

[5] = system: colon tumor burden in AOM mice (Azoxymethane + FVB); experiment: AOM mouse model: colon tumor count after peptide vaccination; format: in vivo; settings: for effect on colon tumor burden (tumor count): AOM treated FVB mice, vs control group (CFA/IFA; PBS for IGF1R, PRL3, RCAS1); for peptide efficacy, Azoxymethane + FVB (Induced): summary table, Yes/No
Protocol: AOM mouse in-vivo experiments. At 6 weeks of age, FVB mice were immunized in CFA/IFA, PBS, and vaccine groups. Each group received subcutaneous injections (100 ul PBS, 50 ul CFA with 50 ul PBS, 50 ug per peptide with 50 ul CFA) once every 10-14 days for a total of three doses and a booster was given every 4-5 weeks after the third vaccine. See Table 7 for peptides included in vaccine compositions. CFA was replaced with IFA after the first vaccine. Seven days after the third vaccine, mice were injected with Azoxymethane (AOM) at 10 mg/kg, twice weekly for 6 weeks. At 26 weeks of age, all mice were sacrificed and tumors in the colon were counted.

Molecule | effect on small bowel tumor burden (tumor count) [1] | effect on small bowel tumor burden (tumor count) [2] | peptide efficacy, APCmin Small Bowel (Spontaneous) [2] | effect on colon tumor burden (tumor count) [3] | peptide efficacy, APCmin Colon (Spontaneous) [3] | effect on tumor volume [4] | peptide efficacy, MC-38 + B6 (Tumor Implant) [4] | effect on colon tumor burden (tumor count) [5] | peptide efficacy, Azoxymethane + FVB (Induced) [5]
B1 | does not significantly inhibit | vaccine efficacy; also recorded: significantly inhibits | Yes | lack of PRL3 vaccine efficacy; also recorded: does not significantly inhibit | No | significantly inhibits | Yes | lack of PRL3 vaccine efficacy; also recorded: does not significantly inhibit | No
B2 | – | vaccine efficacy; also recorded: significantly inhibits | Yes | lack of RCAS1 vaccine efficacy; also recorded: does not significantly inhibit | No | significantly inhibits | Yes | lack of RCAS1 vaccine efficacy; also recorded: do not significantly inhibit | No
B3 | – | vaccine efficacy; also recorded: significantly inhibits | Yes | vaccine efficacy; also recorded: significantly inhibits | Yes | does not significantly inhibit | No | lack of VCP vaccine efficacy; also recorded: does not significantly inhibit | No
